This note sets out measurements from paper PMC6499326 (Genes & Development, 2019).

For orientation: stoichiometry N means the number of molecules, sites or subunits per partner or assembly.

The target of one series is T1, His-MTR4^71–1042 (human, UniProt P42285 71-1042).
T1 sequence: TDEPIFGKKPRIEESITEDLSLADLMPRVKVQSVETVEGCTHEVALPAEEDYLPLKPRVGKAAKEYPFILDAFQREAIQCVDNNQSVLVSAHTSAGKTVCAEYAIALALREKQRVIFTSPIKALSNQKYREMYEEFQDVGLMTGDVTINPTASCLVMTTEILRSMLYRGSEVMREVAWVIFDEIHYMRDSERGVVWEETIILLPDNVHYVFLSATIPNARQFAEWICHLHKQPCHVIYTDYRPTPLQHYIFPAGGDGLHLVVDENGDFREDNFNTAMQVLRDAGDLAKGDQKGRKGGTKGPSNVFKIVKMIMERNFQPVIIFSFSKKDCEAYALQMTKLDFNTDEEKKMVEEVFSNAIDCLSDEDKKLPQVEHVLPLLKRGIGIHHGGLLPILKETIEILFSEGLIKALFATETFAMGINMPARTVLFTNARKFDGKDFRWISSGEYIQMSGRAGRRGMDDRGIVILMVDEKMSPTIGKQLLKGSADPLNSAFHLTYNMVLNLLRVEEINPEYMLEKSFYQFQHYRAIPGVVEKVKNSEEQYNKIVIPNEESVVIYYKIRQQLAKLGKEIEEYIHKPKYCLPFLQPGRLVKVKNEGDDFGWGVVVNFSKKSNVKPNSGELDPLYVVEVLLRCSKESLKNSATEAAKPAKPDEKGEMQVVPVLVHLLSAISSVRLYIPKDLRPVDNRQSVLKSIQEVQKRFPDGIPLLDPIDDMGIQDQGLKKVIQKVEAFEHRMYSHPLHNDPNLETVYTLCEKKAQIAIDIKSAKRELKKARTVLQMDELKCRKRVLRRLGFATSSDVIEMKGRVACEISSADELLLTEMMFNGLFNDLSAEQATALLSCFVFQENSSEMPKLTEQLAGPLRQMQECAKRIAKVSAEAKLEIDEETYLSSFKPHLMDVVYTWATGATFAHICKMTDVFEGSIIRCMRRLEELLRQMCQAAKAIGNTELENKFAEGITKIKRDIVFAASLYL
Description: SEC. For orientation: SEC sorts molecules by how far they enter the pores of the column.

For the next series, the target named is T2, MTR4;NRDE2 MID (Homo sapiens;Homo sapiens, UniProt P42285;Q9H7Z3 71-1042;163-266, |).
T2 sequence 1: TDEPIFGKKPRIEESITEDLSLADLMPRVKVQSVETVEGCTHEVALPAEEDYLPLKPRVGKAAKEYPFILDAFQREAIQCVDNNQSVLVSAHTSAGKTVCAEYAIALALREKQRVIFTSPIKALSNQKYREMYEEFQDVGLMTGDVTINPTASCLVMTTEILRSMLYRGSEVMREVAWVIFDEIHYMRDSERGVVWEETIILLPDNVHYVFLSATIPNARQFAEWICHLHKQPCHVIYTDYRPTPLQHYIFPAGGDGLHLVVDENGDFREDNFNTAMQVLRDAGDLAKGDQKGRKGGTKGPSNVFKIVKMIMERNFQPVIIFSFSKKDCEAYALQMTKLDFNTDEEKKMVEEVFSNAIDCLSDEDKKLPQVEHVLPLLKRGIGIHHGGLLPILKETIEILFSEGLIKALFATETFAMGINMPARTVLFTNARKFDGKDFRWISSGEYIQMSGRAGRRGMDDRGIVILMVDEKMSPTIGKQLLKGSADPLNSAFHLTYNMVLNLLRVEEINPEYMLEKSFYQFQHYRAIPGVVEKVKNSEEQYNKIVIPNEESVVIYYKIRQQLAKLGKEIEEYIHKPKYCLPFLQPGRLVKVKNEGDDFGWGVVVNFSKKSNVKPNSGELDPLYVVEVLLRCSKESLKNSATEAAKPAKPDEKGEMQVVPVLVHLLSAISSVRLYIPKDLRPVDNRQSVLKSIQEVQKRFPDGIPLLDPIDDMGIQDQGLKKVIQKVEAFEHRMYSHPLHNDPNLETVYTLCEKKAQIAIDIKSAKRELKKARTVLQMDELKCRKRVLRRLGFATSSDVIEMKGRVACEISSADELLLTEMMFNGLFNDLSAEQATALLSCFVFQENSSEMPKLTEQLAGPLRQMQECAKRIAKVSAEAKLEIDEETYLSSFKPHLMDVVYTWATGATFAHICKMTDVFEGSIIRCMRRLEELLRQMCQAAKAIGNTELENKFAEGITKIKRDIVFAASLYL
T2 sequence 2: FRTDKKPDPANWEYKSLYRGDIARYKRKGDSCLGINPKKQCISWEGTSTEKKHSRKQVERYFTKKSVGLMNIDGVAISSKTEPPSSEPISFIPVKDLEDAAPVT
The experiment in a line: EMSA. (A gel shift assay detects complexes by their altered migration in electrophoresis.)

For the next series, the target named is T3, His-NRDE2^111–1164 (human, UniProt Q9H7Z3 111-1164).
T3 sequence: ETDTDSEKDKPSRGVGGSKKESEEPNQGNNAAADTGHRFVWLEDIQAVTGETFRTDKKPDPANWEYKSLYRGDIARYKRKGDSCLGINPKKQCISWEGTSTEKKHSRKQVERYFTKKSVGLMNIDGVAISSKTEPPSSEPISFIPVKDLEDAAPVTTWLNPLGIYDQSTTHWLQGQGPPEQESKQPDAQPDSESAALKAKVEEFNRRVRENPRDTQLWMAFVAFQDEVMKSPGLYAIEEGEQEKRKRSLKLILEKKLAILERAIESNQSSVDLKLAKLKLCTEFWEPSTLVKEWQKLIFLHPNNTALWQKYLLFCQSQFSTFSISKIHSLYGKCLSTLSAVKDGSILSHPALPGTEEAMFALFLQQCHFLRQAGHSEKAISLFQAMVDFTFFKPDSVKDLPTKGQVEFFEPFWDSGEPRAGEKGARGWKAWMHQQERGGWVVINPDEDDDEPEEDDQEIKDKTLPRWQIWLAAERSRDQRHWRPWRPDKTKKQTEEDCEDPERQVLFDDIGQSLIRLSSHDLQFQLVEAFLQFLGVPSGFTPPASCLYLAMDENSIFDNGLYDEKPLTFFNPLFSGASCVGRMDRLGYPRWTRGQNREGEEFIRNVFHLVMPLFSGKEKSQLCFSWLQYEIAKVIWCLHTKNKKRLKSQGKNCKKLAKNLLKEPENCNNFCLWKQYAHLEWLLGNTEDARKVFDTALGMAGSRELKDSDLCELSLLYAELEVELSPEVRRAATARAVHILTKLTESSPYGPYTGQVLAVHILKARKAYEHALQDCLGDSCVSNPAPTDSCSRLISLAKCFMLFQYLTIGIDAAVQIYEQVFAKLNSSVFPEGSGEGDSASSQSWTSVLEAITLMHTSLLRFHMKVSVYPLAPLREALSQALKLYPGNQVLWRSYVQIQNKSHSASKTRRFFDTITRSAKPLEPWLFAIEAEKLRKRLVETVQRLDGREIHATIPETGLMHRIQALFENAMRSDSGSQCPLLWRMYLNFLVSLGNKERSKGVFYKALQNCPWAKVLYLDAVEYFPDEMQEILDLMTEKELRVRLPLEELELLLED
Description: pull-down.

B1: untagged NRDE2^111–1164 (domain or fragment)
chain: ETDTDSEKDKPSRGVGGSKKESEEPNQGNNAAADTGHRFVWLEDIQAVTGETFRTDKKPDPANWEYKSLYRGDIARYKRKGDSCLGINPKKQCISWEGTSTEKKHSRKQVERYFTKKSVGLMNIDGVAISSKTEPPSSEPISFIPVKDLEDAAPVTTWLNPLGIYDQSTTHWLQGQGPPEQESKQPDAQPDSESAALKAKVEEFNRRVRENPRDTQLWMAFVAFQDEVMKSPGLYAIEEGEQEKRKRSLKLILEKKLAILERAIESNQSSVDLKLAKLKLCTEFWEPSTLVKEWQKLIFLHPNNTALWQKYLLFCQSQFSTFSISKIHSLYGKCLSTLSAVKDGSILSHPALPGTEEAMFALFLQQCHFLRQAGHSEKAISLFQAMVDFTFFKPDSVKDLPTKGQVEFFEPFWDSGEPRAGEKGARGWKAWMHQQERGGWVVINPDEDDDEPEEDDQEIKDKTLPRWQIWLAAERSRDQRHWRPWRPDKTKKQTEEDCEDPERQVLFDDIGQSLIRLSSHDLQFQLVEAFLQFLGVPSGFTPPASCLYLAMDENSIFDNGLYDEKPLTFFNPLFSGASCVGRMDRLGYPRWTRGQNREGEEFIRNVFHLVMPLFSGKEKSQLCFSWLQYEIAKVIWCLHTKNKKRLKSQGKNCKKLAKNLLKEPENCNNFCLWKQYAHLEWLLGNTEDARKVFDTALGMAGSRELKDSDLCELSLLYAELEVELSPEVRRAATARAVHILTKLTESSPYGPYTGQVLAVHILKARKAYEHALQDCLGDSCVSNPAPTDSCSRLISLAKCFMLFQYLTIGIDAAVQIYEQVFAKLNSSVFPEGSGEGDSASSQSWTSVLEAITLMHTSLLRFHMKVSVYPLAPLREALSQALKLYPGNQVLWRSYVQIQNKSHSASKTRRFFDTITRSAKPLEPWLFAIEAEKLRKRLVETVQRLDGREIHATIPETGLMHRIQALFENAMRSDSGSQCPLLWRMYLNFLVSLGNKERSKGVFYKALQNCPWAKVLYLDAVEYFPDEMQEILDLMTEKELRVRLPLEELELLLED
As to B1, the “stoichiometry N” value with His-MTR4^71–1042 amounted to 1.

B2: 5' FAM RNA (EMSA) (ssRNA)
RNA: UGUCUGACUGAAGGACCAGGUGCUGUCUGA
Consider B2, for which the binding signal with MTR4;NRDE2 MID was ~8 fold higher affinity than MTR4 alone.

B3: MBP-MTR4^FL (natural protein)
chain: MADAFGDELFSVFEGDSTTAAGTKKDKEKDKGKWKGPPGSADKAGKRFDGKLQSESTNNGKNKRDVDFEGTDEPIFGKKPRIEESITEDLSLADLMPRVKVQSVETVEGCTHEVALPAEEDYLPLKPRVGKAAKEYPFILDAFQREAIQCVDNNQSVLVSAHTSAGKTVCAEYAIALALREKQRVIFTSPIKALSNQKYREMYEEFQDVGLMTGDVTINPTASCLVMTTEILRSMLYRGSEVMREVAWVIFDEIHYMRDSERGVVWEETIILLPDNVHYVFLSATIPNARQFAEWICHLHKQPCHVIYTDYRPTPLQHYIFPAGGDGLHLVVDENGDFREDNFNTAMQVLRDAGDLAKGDQKGRKGGTKGPSNVFKIVKMIMERNFQPVIIFSFSKKDCEAYALQMTKLDFNTDEEKKMVEEVFSNAIDCLSDEDKKLPQVEHVLPLLKRGIGIHHGGLLPILKETIEILFSEGLIKALFATETFAMGINMPARTVLFTNARKFDGKDFRWISSGEYIQMSGRAGRRGMDDRGIVILMVDEKMSPTIGKQLLKGSADPLNSAFHLTYNMVLNLLRVEEINPEYMLEKSFYQFQHYRAIPGVVEKVKNSEEQYNKIVIPNEESVVIYYKIRQQLAKLGKEIEEYIHKPKYCLPFLQPGRLVKVKNEGDDFGWGVVVNFSKKSNVKPNSGELDPLYVVEVLLRCSKESLKNSATEAAKPAKPDEKGEMQVVPVLVHLLSAISSVRLYIPKDLRPVDNRQSVLKSIQEVQKRFPDGIPLLDPIDDMGIQDQGLKKVIQKVEAFEHRMYSHPLHNDPNLETVYTLCEKKAQIAIDIKSAKRELKKARTVLQMDELKCRKRVLRRLGFATSSDVIEMKGRVACEISSADELLLTEMMFNGLFNDLSAEQATALLSCFVFQENSSEMPKLTEQLAGPLRQMQECAKRIAKVSAEAKLEIDEETYLSSFKPHLMDVVYTWATGATFAHICKMTDVFEGSIIRCMRRLEELLRQMCQAAKAIGNTELENKFAEGITKIKRDIVFAASLYL
Take B3: the binding result with His-NRDE2^111–1164 is on record as “binds”.
